Starred links: 1 amine or outer side, 2 acyl side, 3 side chain; linkers in the order of their positions; H or OH if unused. Non-standard residues stand in square brackets, D forms with d. *: point of attachment. Ala(piperidin-4-yl) = O=C([C@H](CC1CCN([*:3])CC1)N[*:1])[*:2]; β‑HOAla = beta-homoalanine, D or L form; Lys(Me2) = CN(C)CCCC[C@H](N)C(=O)O; 4Pal = N[C@@H](Cc1ccncc1)C(=O)O; Cha = N[C@@H](CC1CCCCC1)C(=O)O; hSer = N[C@@H](CCO)C(=O)O; Isobutyryl = CC(C)C(=O)*; Abu = CC[C@H](N)C(=O)O; Aib = CC(C)(N)C(=O)O; Bz = O=C(c1ccccc1)*
Experiments:
human Y2 receptor [1] = biological target: T1, human Y2 receptor (Homo sapiens, UniProt P49146); assay: Human Y2 Receptor G Protein Binding Assay (GBA), [35S]GTPγS; format: biochemical; details: EC50 of test compound/EC50 of PYY(3-36) (PYY3-36 taken as 1), hY2R/CHO membrane fraction
T1 construct: expressed in transfected cells; membrane fraction
T1 sequence (P49146 1-381): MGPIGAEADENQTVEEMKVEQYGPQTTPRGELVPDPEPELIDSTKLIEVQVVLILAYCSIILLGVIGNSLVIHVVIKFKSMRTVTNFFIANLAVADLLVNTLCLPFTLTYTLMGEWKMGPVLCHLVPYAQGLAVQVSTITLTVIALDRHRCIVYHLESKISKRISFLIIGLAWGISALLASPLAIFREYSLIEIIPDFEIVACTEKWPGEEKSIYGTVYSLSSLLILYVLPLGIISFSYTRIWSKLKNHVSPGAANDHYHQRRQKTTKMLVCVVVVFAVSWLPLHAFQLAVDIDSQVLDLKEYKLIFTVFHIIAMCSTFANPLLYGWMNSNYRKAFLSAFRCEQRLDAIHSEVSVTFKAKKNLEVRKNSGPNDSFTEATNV
Procedure, shortened: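 Agonism measured as [35S]GTPγS binding, read by GF/C filtration and scintillation counting after 120 min at room temperature, using human Y2 membranes at 1 μg protein/mL in pH 7.4 Tris/MgCl2/NaCl/GDP buffer. Compound serially diluted 100 μM–1 nM; EC50 normalized to PYY(3-36) (ratio = compound/PYY).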

human Y2 receptor [2] = biological target: T1, human Y2 receptor; assay: Receptor Binding Assay (RBA) for Human Y2, [125I]-PYY displacement on hY2R/CHO membrane fraction; details: IC50 of test compound/IC50 of PYY(3-36) (PYY(3-36) taken as 1)
Procedure, shortened: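 hY2R stably expressed in CHO/dhfr− cells; membrane fraction prepared from cells disrupted in 10 mM NaHCO3, 5 mM EDTA buffer with protease inhibitors. Binding read as displacement of [125I]-PYY.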

Row | Substance | GBA EC50 Ratio (human Y2 receptor [1]) | RBA IC50 Ratio (human Y2 receptor [2])
1 | Ac-[Glu23, D-Pro24, Pya(4)26, Cha27,28,36, Aib31]-PYY(23-36) (Ac-E[dP]R[4Pal][Cha][Cha]NL[Aib]TRQR[Cha]-NH2; SMILES CC(=O)N[C@@H](CCC(=O)O)C(=O)N1CCC[C@@H]1C(=O)N[C@@H](CCCNC(=N)N)C(=O)N[C@@H](Cc1ccncc1)C(=O)N[C@@H](CC1CCCCC1)C(=O)N[C@@H](CC1CCCCC1)C(=O)N[C@@H](CC(N)=O)C(=O)N[C@@H](CC(C)C)C(=O)NC(C)(C)C(=O)N[C@H](C(=O)N[C@@H](CCCNC(=N)N)C(=O)N[C@@H](CCC(N)=O)C(=O)N[C@@H](CCCNC(=N)N)C(=O)N[C@@H](CC1CCCCC1)C(N)=O)[C@@H](C)O) [compound No. 141] | 1.3 | 4.6
2 | Ac-[D-Pro24, Aib25,28,31, Cha27,36, Lys30]-PYY(23-36) (Ac-S[dP][Aib]H[Cha][Aib]NK[Aib]TRQR[Cha]-NH2; SMILES CC(=O)N[C@@H](CO)C(=O)N1CCC[C@@H]1C(=O)NC(C)(C)C(=O)N[C@@H](Cc1c[nH]cn1)C(=O)N[C@@H](CC1CCCCC1)C(=O)NC(C)(C)C(=O)N[C@@H](CC(N)=O)C(=O)N[C@@H](CCCCN)C(=O)NC(C)(C)C(=O)N[C@H](C(=O)N[C@@H](CCCNC(=N)N)C(=O)N[C@@H](CCC(N)=O)C(=O)N[C@@H](CCCNC(=N)N)C(=O)N[C@@H](CC1CCCCC1)C(N)=O)[C@@H](C)O) [compound No. 238] | 11 | 24
3 | Isobutanoyl-[Abu26, Cha27,28,36, Abu30, Aib31]-PYY(25-36) (Isobutyryl-R[Abu][Cha][Cha]N[Abu][Aib]TRQR[Cha]-NH2; SMILES CC[C@H](NC(=O)[C@H](CCCNC(=N)N)NC(=O)C(C)C)C(=O)N[C@@H](CC1CCCCC1)C(=O)N[C@@H](CC1CCCCC1)C(=O)N[C@@H](CC(N)=O)C(=O)N[C@@H](CC)C(=O)NC(C)(C)C(=O)N[C@H](C(=O)N[C@@H](CCCNC(=N)N)C(=O)N[C@@H](CCC(N)=O)C(=O)N[C@@H](CCCNC(=N)N)C(=O)N[C@@H](CC1CCCCC1)C(N)=O)[C@@H](C)O) [compound No. 91] | 21 | 20
4 | Ac-[D-Pro24, Cha27,28,36, Lys(Me2)30, Aib31]-PYY(23-36) (Ac-S[dP]RH[Cha][Cha]N[Lys(Me2)][Aib]TRQR[Cha]-NH2; SMILES CC(=O)N[C@@H](CO)C(=O)N1CCC[C@@H]1C(=O)N[C@@H](CCCNC(=N)N)C(=O)N[C@@H](Cc1c[nH]cn1)C(=O)N[C@@H](CC1CCCCC1)C(=O)N[C@@H](CC1CCCCC1)C(=O)N[C@@H](CC(N)=O)C(=O)N[C@@H](CCCCN(C)C)C(=O)NC(C)(C)C(=O)N[C@H](C(=O)N[C@@H](CCCNC(=N)N)C(=O)N[C@@H](CCC(N)=O)C(=O)N[C@@H](CCCNC(=N)N)C(=O)N[C@@H](CC1CCCCC1)C(N)=O)[C@@H](C)O) [compound No. 166] | 0.7 | 0.8
5 | Ac-[D-Pro24, Pya(4)26, Cha27,36, Aib28,31, Hse30]-PYY(23-36) (Ac-S[dP]R[4Pal][Cha][Aib]N[hSer][Aib]TRQR[Cha]-NH2; SMILES CC(=O)N[C@@H](CO)C(=O)N1CCC[C@@H]1C(=O)N[C@@H](CCCNC(=N)N)C(=O)N[C@@H](Cc1ccncc1)C(=O)N[C@@H](CC1CCCCC1)C(=O)NC(C)(C)C(=O)N[C@@H](CC(N)=O)C(=O)N[C@@H](CCO)C(=O)NC(C)(C)C(=O)N[C@H](C(=O)N[C@@H](CCCNC(=N)N)C(=O)N[C@@H](CCC(N)=O)C(=O)N[C@@H](CCCNC(=N)N)C(=O)N[C@@H](CC1CCCCC1)C(N)=O)[C@@H](C)O) [compound No. 265] | 5.7 | 5.8
6 | Ac-[D-Pro24, Pya(4)26, Ala(4Pip)27, Aib28,31, Lys30, Cha36]-PYY(23-36) [compound No. 309] (Ac-S[dP]R[4Pal][Ala(piperidin-4-yl)][Aib]NK[Aib]TRQR[Cha]-NH2; SMILES CC(=O)N[C@@H](CO)C(=O)N1CCC[C@@H]1C(=O)N[C@@H](CCCNC(=N)N)C(=O)N[C@@H](Cc1ccncc1)C(=O)N[C@@H](CC1CCNCC1)C(=O)NC(C)(C)C(=O)N[C@@H](CC(N)=O)C(=O)N[C@@H](CCCCN)C(=O)NC(C)(C)C(=O)N[C@H](C(=O)N[C@@H](CCCNC(=N)N)C(=O)N[C@@H](CCC(N)=O)C(=O)N[C@@H](CCCNC(=N)N)C(=O)N[C@@H](CC1CCCCC1)C(N)=O)[C@@H](C)O) | 3.9 | 3.8
7 | Isobutanoyl-[Abu26, Cha27,36, His28, Aib31]-PYY(25-36) (Isobutyryl-R[Abu][Cha]HNL[Aib]TRQR[Cha]-NH2; SMILES CC[C@H](NC(=O)[C@H](CCCNC(=N)N)NC(=O)C(C)C)C(=O)N[C@@H](CC1CCCCC1)C(=O)N[C@@H](Cc1c[nH]cn1)C(=O)N[C@@H](CC(N)=O)C(=O)N[C@@H](CC(C)C)C(=O)NC(C)(C)C(=O)N[C@H](C(=O)N[C@@H](CCCNC(=N)N)C(=O)N[C@@H](CCC(N)=O)C(=O)N[C@@H](CCCNC(=N)N)C(=O)N[C@@H](CC1CCCCC1)C(N)=O)[C@@H](C)O) [compound No. 101] | 13 | 19
8 | Ac-[Glu23, D-Pro24, Pya(4)26, Cha27,36, Aib28,31, Lys30]-PYY(22-36) (Ac-AE[dP]R[4Pal][Cha][Aib]NK[Aib]TRQR[Cha]-NH2; SMILES CC(=O)N[C@@H](C)C(=O)N[C@@H](CCC(=O)O)C(=O)N1CCC[C@@H]1C(=O)N[C@@H](CCCNC(=N)N)C(=O)N[C@@H](Cc1ccncc1)C(=O)N[C@@H](CC1CCCCC1)C(=O)NC(C)(C)C(=O)N[C@@H](CC(N)=O)C(=O)N[C@@H](CCCCN)C(=O)NC(C)(C)C(=O)N[C@H](C(=O)N[C@@H](CCCNC(=N)N)C(=O)N[C@@H](CCC(N)=O)C(=O)N[C@@H](CCCNC(=N)N)C(=O)N[C@@H](CC1CCCCC1)C(N)=O)[C@@H](C)O) [compound No. 220] | 3.5 | 5.3
9 | Ac-[D-Pro24, Aib25,28,31, Pya(4)26, Cha27,36, Lys30]-PYY(23-36) (Ac-S[dP][Aib][4Pal][Cha][Aib]NK[Aib]TRQR[Cha]-NH2; SMILES CC(=O)N[C@@H](CO)C(=O)N1CCC[C@@H]1C(=O)NC(C)(C)C(=O)N[C@@H](Cc1ccncc1)C(=O)N[C@@H](CC1CCCCC1)C(=O)NC(C)(C)C(=O)N[C@@H](CC(N)=O)C(=O)N[C@@H](CCCCN)C(=O)NC(C)(C)C(=O)N[C@H](C(=O)N[C@@H](CCCNC(=N)N)C(=O)N[C@@H](CCC(N)=O)C(=O)N[C@@H](CCCNC(=N)N)C(=O)N[C@@H](CC1CCCCC1)C(N)=O)[C@@H](C)O) [compound No. 236] | 1.7 | 8.4

Further lines, results first:

Row | GBA EC50 Ratio (human Y2 receptor [1]) | RBA IC50 Ratio (human Y2 receptor [2]) | Substance
10 | 4.3 | 5.6 | Benzoyl-[His27, Cha28,36, Aib31]-PYY(25-36) (Bz-RHH[Cha]NL[Aib]TRQR[Cha]-NH2; SMILES CC(C)C[C@H](NC(=O)[C@H](CC(N)=O)NC(=O)[C@H](CC1CCCCC1)NC(=O)[C@H](Cc1c[nH]cn1)NC(=O)[C@H](Cc1c[nH]cn1)NC(=O)[C@H](CCCNC(=N)N)NC(=O)c1ccccc1)C(=O)NC(C)(C)C(=O)N[C@H](C(=O)N[C@@H](CCCNC(=N)N)C(=O)N[C@@H](CCC(N)=O)C(=O)N[C@@H](CCCNC(=N)N)C(=O)N[C@@H](CC1CCCCC1)C(N)=O)[C@@H](C)O) [compound No. 104]
11 | 2.4 | 3.3 | Piperidinocarbonyl-[Glu23, D-Pro24, Pya(4)26, Cha27,36, Aib28,31, Lys30]-PYY(23-36) (piperidinocarbonyl-E[dP]R[4Pal][Cha][Aib]NK[Aib]TRQR[Cha]-NH2) [compound No. 193]
12 | 1.9 | 0.85 | Ac-[β-HOAla24, Pya(4)26, Cha27,36, Aib28,31, Lys30]-PYY(23-36) [compound No. 245] (Ac-S[β‑HOAla]R[4Pal][Cha][Aib]NK[Aib]TRQR[Cha]-NH2; also: β-HOAla at position 2: D or L form not settled)
13 | 6.0 | 13 | Benzoyl-[Ser26, Cha27,28,36, Aib31]-PYY(25-36) (Bz-RS[Cha][Cha]NL[Aib]TRQR[Cha]-NH2; SMILES CC(C)C[C@H](NC(=O)[C@H](CC(N)=O)NC(=O)[C@H](CC1CCCCC1)NC(=O)[C@H](CC1CCCCC1)NC(=O)[C@H](CO)NC(=O)[C@H](CCCNC(=N)N)NC(=O)c1ccccc1)C(=O)NC(C)(C)C(=O)N[C@H](C(=O)N[C@@H](CCCNC(=N)N)C(=O)N[C@@H](CCC(N)=O)C(=O)N[C@@H](CCCNC(=N)N)C(=O)N[C@@H](CC1CCCCC1)C(N)=O)[C@@H](C)O) [compound No. 97]
